Data: US20220233705A1, “COMBINED THERAPIES OF ACTIVATABLE IMMUNE CHECKPOINT INHIBITORS AND CONJUGATED ACTIVATABLE ANTIBODIES” (CYTOMX THERAPEUTICS, INC., priority 2019, published 2022)

B1: anti-CD166 ADC (conjugate)
VH: QITLKESGPTLVKPTQTLTLTCTFSGFSLSTYGMGVGWIRQPPGKALEWLANIWWSEDKHYSPSLKSRLTITKDTSKNQVVLTITNVDPVDTATYYCVQIDYGNDYAFTYWGQGTLVTVSS
VL: DIVMTQSPLSLPVTPGEPASISCRSSKSLLHSNGITYLYWYLQKPGQSPQLLIYQMSNLASGVPDRFSGSGSGTDFTLKISRVEAEDVGVYYCAQNLELPYTFGQGTKLEIK

Experiments:
HCC1806 cells = experiment: Immunogenic cell death markers in HCC1806 cells; format: cell-based, human; conditions: HCC1806, 48 hours; for secreted HMGB1: ELISA
Protocol: (§1) ICD can be measured by markers such as the expression of calreticulin on the surface of cancer cells and secretion of HMGB1. In this exemplary study, A375 cells (ATCC) derived from a human malignant melanoma were cultured in RPMI-1640™ medium with 10% (v/v) fetal bovine serum for 48 hours in the presence of the indicated amount of drug. HCC1806 cells (ATCC) derived from human breast carcinoma were cultured in DME medium for 48 hours in the presence of the indicated amount of drug. CT26 cells and CT26 huCD166 cells (CT26 cells expressing human CD166 polypeptide as discussed herein) were cultured in RPMI-1640™ medium with 10% (v/v) fetal bovine serum for 72 hours in the presence of the indicated amount of drug. Following incubation, calreticulin expression was detected by flow cytometry using a FITC conjugated calreticulin antibody (Novus Bio, clone 1G6A7; #NBP1-47518F). HMGB1 protein was detected by ELISA (Tecan HMGB1 ELISA kit, #NC9959947).

A375 cells = experiment: Immunogenic cell death markers in A375 cells; format: cell-based, human; conditions: A375, 48 hours; for secreted HMGB1: ELISA
Protocol: as §1

CT26 huCD166 cells = experiment: Calreticulin surface expression on CT26 huCD166 cells; format: cell-based, mouse; conditions: CT26 huCD166, 72 hours
Protocol: as §1

CT26 cells = experiment: Calreticulin surface expression on CT26 cells; format: cell-based, mouse; conditions: CT26, 72 hours
Protocol: as §1

dendritic cells (MoDCs) = experiment: Dendritic cell maturation markers by flow cytometry; format: cell-based, human; set-up: dose or concentration left out as unconfirmed; conditions: 48 hours, compared to untreated cells
Protocol: In this study, dendritic cells were cultured with […] anti-CD166 antibody conjugated to DM4 (CD166-DM4 ADC) or a dendritic cell maturation cocktail (Stem Cell Technology DC maturation kit (#10989)) for 48 hours. […] The MoDCs were then assessed for maturation by flow cytometric measurement of dendritic cell maturation markers CD80 (2D10 antibody, BioLegend), CD83 (HB15e antibody, BioLegend), HLA-DR (L243 antibody, BioLegend), and CD86 (IT2.2 antibody, BioLegend).

[1] = test system: allogenic CD4+ T cells co-cultured with MoDCs; format: cell-based, human
activated human T cells = experiment: Cytotoxicity towards activated T cells (CellTiter-Glo)
[2] = test system: human dendritic cells (MoDC); experiment: Cytotoxicity towards fully activated MoDC (CytoTox-Glo); conditions: 48 hours

Row | Molecule | expression of calreticulin (CRT) (HCC1806 cells) | secreted HMGB1 (HCC1806 cells) | expression of calreticulin (CRT) (A375 cells) | secreted HMGB1 (A375 cells) | surface expression of calreticulin (CRT) (CT26 huCD166 cells) | surface expression of calreticulin (CRT) (CT26 cells) | expression of CD83 (dendritic cells (MoDCs)) | expression of CD86 (dendritic cells (MoDCs)) | production of IL-2 by allogeneic T cells [1] | cytotoxic activity towards activated T cells (activated human T cells; 72 hours treatment) | doses at which cytotoxicity was observed (activated human T cells; activated T cells, 72 hours) | cytotoxic activity towards MoDCs [2] | doses at which cytotoxicity was observed ([2]; fully activated MoDC)
1 | COc1cc2cc(c1Cl)N(C)C(=O)C[C@H](OC(=O)[C@H](C)N(C)C(=O)CCC(C)(C)S)[C@]1(C)O[C@H]1[C@H](C)[C@@H]1C[C@@](O)(NC(=O)O1)[C@H](OC)/C=C/C=C(\C)C2 [free DM4, DM4, reference compound] | increased expression | increased amounts | increased expression | increased amounts | increased surface expression | increased surface expression | slightly increased | slightly increased | – | – | – | – | –
2 | B1 | increased expression | increased amounts | increased expression | increased amounts | increased surface expression | increased surface expression | slightly increased | slightly increased | slightly increase | minimal cytotoxic activity | above 10 nM | minimal cytotoxic activity | above 10 nM
